The target of assay [1] is C5b6 complex generated on convertase-labelled E. coli from C5 and C6 (human) (UniProt P01031).
The target is the same in assay [2]. This is another data set of the same source.
Assay [3] shares this target. This is another data set of the same source.

UniProt P01031, sequence (P01031 19-673, chain 1 of 3): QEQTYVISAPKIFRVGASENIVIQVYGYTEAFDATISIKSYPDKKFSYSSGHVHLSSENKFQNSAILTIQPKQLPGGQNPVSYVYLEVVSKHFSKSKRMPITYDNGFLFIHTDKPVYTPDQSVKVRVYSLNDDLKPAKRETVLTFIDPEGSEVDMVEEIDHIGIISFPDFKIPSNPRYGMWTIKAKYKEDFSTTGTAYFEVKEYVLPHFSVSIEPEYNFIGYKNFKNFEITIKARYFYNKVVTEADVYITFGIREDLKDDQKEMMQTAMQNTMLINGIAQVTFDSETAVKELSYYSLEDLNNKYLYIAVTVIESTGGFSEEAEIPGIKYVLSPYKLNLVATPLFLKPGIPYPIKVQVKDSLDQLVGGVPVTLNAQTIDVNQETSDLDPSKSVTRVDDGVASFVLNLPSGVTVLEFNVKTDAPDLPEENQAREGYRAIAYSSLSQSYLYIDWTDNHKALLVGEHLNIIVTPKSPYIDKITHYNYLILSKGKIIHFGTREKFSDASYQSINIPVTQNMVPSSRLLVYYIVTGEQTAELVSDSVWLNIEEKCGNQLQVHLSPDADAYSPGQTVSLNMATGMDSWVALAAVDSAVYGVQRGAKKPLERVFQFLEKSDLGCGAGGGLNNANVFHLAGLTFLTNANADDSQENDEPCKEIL
UniProt P01031, sequence (P01031 752-1676, chain 2 of 3): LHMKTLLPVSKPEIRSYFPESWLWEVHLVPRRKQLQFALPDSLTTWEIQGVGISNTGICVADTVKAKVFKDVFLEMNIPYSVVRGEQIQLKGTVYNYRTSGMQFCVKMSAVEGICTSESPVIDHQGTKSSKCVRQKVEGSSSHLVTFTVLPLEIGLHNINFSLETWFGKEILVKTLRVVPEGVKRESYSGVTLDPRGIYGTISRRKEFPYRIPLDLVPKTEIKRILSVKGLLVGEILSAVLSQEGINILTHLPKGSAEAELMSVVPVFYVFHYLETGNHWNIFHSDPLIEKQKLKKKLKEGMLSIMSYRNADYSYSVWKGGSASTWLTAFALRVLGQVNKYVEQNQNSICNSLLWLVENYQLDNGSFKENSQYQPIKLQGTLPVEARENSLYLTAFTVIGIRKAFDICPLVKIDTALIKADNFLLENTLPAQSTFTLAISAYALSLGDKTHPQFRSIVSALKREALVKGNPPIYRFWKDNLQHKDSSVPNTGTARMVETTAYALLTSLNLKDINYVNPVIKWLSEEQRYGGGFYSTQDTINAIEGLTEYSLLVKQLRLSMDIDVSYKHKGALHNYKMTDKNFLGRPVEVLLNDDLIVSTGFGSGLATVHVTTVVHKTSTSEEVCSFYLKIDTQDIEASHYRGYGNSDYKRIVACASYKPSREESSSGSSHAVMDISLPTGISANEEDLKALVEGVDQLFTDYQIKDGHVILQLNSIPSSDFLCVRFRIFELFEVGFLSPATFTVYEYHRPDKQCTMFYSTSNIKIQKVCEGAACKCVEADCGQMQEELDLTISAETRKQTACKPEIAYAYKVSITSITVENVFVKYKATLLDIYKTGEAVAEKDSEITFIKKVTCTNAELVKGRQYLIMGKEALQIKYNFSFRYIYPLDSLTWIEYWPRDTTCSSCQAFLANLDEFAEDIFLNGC
UniProt P01031, sequence (P13671 22-934, chain 3 of 3, further chain): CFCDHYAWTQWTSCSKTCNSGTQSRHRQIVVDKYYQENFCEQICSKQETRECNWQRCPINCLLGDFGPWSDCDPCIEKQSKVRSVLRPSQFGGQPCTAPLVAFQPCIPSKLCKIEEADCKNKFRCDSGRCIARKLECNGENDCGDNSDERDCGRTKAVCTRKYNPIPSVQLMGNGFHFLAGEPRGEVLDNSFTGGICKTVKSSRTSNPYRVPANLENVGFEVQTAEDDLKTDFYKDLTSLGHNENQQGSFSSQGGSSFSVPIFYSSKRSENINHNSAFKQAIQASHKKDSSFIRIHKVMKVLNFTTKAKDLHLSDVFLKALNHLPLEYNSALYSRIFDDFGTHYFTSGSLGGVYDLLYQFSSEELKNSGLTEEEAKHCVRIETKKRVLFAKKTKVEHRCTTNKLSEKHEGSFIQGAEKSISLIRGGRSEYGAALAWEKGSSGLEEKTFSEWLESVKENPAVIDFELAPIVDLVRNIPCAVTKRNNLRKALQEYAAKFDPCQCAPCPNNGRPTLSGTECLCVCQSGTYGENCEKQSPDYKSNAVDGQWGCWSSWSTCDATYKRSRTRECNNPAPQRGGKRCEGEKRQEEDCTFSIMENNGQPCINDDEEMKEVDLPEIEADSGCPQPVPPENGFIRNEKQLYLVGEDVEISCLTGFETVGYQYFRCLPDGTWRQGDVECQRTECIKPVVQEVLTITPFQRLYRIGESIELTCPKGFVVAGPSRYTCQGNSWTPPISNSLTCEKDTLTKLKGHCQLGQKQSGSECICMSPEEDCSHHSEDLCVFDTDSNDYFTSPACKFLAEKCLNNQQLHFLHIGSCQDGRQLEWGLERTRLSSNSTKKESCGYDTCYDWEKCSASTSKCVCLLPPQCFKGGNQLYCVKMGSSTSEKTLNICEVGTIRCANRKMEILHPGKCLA

As to “His-tagged complement component C7 (from UniProt P10643 23-843) (natural protein)”, in assay [1], the deposition of C9-Cy5 (geoMFI) on E. coli MG1655, C5b6 generated in the absence of C7 against in the presence of C7 came out at 50 fold and the fluorescence ratio C9:C6 on E. coli MG1655, C5b6 generated in the presence of C7 against in the absence of C7 is 10 fold. Also, the percentage of Sytox positive (inner membrane damaged) E. coli MG1655 after addition of C8 and C9; C7 present from t = 0 (~100%) or added 60 minutes after C5b6 generation was initiated (~6%) in assay [2] was 100%. Further, the deposition of C6-Cy5 (geoMFI) on convertase-labelled E. coli MG1655 after 60 minutes, C5b6 generated in the presence of C7 against in its absence in assay [3] worked out at 10 fold.

The values above are taken from PMC7351214.
